{
  "source": "patent US20250257142A1",
  "about": "(INVETX, published 2025)",
  "key": {"[1]": {"biological_target": "T1, extracellular domain of canine IL-31RA fused to murine IgG2A Fc (canine)", "T1 construct": "also called Canine IL-31RA-murine IgG2A Fc; Canine IL-31RA-mFc", "T1 chain": "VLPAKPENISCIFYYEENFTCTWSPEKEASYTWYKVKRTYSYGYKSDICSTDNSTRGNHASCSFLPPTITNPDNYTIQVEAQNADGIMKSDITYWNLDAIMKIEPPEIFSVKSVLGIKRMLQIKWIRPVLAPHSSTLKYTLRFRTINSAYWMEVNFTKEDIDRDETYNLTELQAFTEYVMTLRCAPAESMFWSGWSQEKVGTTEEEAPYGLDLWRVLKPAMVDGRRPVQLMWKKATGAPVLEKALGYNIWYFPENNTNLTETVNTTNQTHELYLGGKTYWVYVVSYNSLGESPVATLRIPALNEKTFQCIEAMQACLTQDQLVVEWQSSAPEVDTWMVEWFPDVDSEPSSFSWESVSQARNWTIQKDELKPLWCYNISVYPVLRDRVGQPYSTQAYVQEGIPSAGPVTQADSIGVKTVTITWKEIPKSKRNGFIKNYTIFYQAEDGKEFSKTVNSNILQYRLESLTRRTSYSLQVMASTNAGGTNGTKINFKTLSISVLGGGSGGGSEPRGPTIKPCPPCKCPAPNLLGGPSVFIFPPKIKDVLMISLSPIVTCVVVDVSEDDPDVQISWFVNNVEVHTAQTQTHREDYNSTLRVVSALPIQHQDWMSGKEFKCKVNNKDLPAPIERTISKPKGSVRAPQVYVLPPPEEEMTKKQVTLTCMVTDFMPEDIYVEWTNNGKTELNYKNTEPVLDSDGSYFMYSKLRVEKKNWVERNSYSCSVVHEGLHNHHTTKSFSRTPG", "test": "SPR Biacore T200, antibody captured on anti-dog H+L chip, canine IL-31RA-mFc as analyte; relative affinity scale: *** 3 pM-100 pM, ** 101 pM-1 nM, * 1.1 nM-20 nM (avidity)", "procedure": "(§1) The different heavy and light chain combinations were co-transfected into ExpiCHO cells using the ExpiCHO transfection kit (ThermoFisher; Cat. #A29133). Seven days following the transient transfection, the IgG in the conditioned medium was purified using MabSelect SuRe chromatography. The antibodies were buffer-exchanged into PBS, pH 7.4. The relative affinity of the variants was determined by SPR on a Biacore T200. The antibody was captured using a CM5 Series S chip amine coupled with an anti-dog H+L antibody (Jackson Immunoresearch). Canine IL-31RA-mFc (100 nM, 50 nM, 25 nM, 12.5 nM, 6.25 nM, 3.625 nM) solutions in 1×HBS-EP+ was flown over the sensor chip for a contact time of 120 s and a dissociation time of 600 s at a flow rate of […]. Double reference-subtracted sensorgrams were fitted to a 1:1 binding model using Biacore T200 Evaluation software. The canine IL-31RA antigen was both a dimer and aggregated so there were avidity effects with the measured affinities. […] Following the initial results with the single variants, a heavy chain containing the W53F variant and the M118I variant was synthesized and subcloned into pcDNA 3.4 (SEQ ID NO:18). The same methods as described above for expression and purification of the variant along with measuring the relative affinity were used to determine the relative affinity of the W53F/M118I heavy chain variant combined with the S95A light chain and the N94Q light chain variants."}, "[2]": {"biological_target": "T1, extracellular domain of canine IL-31RA …", "test": "SPR Biacore T200, antibody captured on anti-dog H+L chip, canine IL-31RA-mFc as analyte; relative affinity scale: *** 3 pM-100 pM, ** 101 pM-1 nM, * 1.1 nM-20 nM (avidity)", "procedure": "as §1, with “Seven” for “The different heavy and light chain combinations were co-transfected into ExpiCHO cells using the ExpiCHO transfection kit (ThermoFisher; Cat. #A29133). Seven”"}},
  "data": [
    {"binder": "109-49 wild-type heavy chain with light chain S95A variant (antibody, V domains shown, Canine IgGB/kappa; signal peptides left out; also called Wild-type / S95A) VH: EVQLVESGGDLVKPGGSLRLSCVASGFTFDDYGMSWVRQAPGKGLQWVSGINWAGGTIGYADAVKGRFTISRDNARNTVYLQMNSLRAEDTAVYYCARESPLRLGDLGGDYFYYYYYMDVWGQGTLVTVSS VL: EVVMIQTPLSLSVSPGEPASISCRASQSVSSRYLVWYLQKPGQSPQLLIYGTSSRATGVSDRFSGSGSGTDFTLRISRVEAEDVGVYYCQQYDNAPRTFGQGTKVEIKR", "values": [
      {"measurement": "relative affinity (apparent KD by SPR)", "setting": "[1]", "result": "0.003 to 0.1", "unit": "nM"}
    ]},
    {"binder": "caninized antibody clone 109-49 (antibody, V domains shown, Canine IgGB and canine kappa constant domains) VH: EVQLVESGGDLVKPGGSLRLSCVASGFTFDDYGMSWVRQAPGKGLQWVSGINWAGGTIGYADAVKGRFTISRDNARNTVYLQMNSLRAEDTAVYYCARESPLRLGDLGGDYFYYYYYMDVWGQGTLVTVSS VL: EVVMIQTPLSLSVSPGEPASISCRASQSVSSRYLVWYLQKPGQSPQLLIYGTSSRATGVSDRFSGSGSGTDFTLRISRVEAEDVGVYYCQQYDNSPRTFGQGTKVEIKR", "values": [
      {"measurement": "relative affinity (apparent KD by SPR)", "setting": "[1]", "result": "0.003 to 0.1", "unit": "nM"}
    ]},
    {"binder": "186-95 heavy chain M106L variant with wild-type light chain (antibody, V domains shown, Canine IgGB/kappa; signal peptides left out; also called M106L / Wild-type) VH: EVQLVESGGDLVKPGGSLRLSCVASGFTFSSYAMSWVRQAPGKGLQWVSAISGSGNSTYYADAVKGRFTISRDNAKNTLYLQMNSLRAEDTAVYYCATQVVYYFKLDVWGQGTLVTVSS VL: EIVMTQSPGSLAGSAGESVSINCKSSQSVSSNLAWYQQKPGERPKLLIYGASTRASGVPARFSSSGSGTDFTLTINNLQAEDVGDYYCQQYYNWPPFTFGQGTKLEIKR", "values": [
      {"measurement": "binding result", "setting": "[2]", "result": "binds"}
    ]},
    {"binder": "186-95 heavy chain N56Q + M106L variant with light chain W94Y variant (antibody, V domains shown, Canine IgGB/kappa; signal peptides left out; also called N56Q-M106L / W94Y) VH: EVQLVESGGDLVKPGGSLRLSCVASGFTFSSYAMSWVRQAPGKGLQWVSAISGSGQSTYYADAVKGRFTISRDNAKNTLYLQMNSLRAEDTAVYYCATQVVYYFKLDVWGQGTLVTVSS VL: EIVMTQSPGSLAGSAGESVSINCKSSQSVSSNLAWYQQKPGERPKLLIYGASTRASGVPARFSSSGSGTDFTLTINNLQAEDVGDYYCQQYYNYPPFTFGQGTKLEIKR", "values": [
      {"measurement": "binding result", "setting": "[2]", "result": "binds"}
    ]},
    {"binder": "186-95 heavy chain M106I variant with wild-type light chain (antibody, V domains shown, Canine IgGB/kappa; signal peptides left out; also called M106I / Wild-type) VH: EVQLVESGGDLVKPGGSLRLSCVASGFTFSSYAMSWVRQAPGKGLQWVSAISGSGNSTYYADAVKGRFTISRDNAKNTLYLQMNSLRAEDTAVYYCATQVVYYFKIDVWGQGTLVTVSS VL: EIVMTQSPGSLAGSAGESVSINCKSSQSVSSNLAWYQQKPGERPKLLIYGASTRASGVPARFSSSGSGTDFTLTINNLQAEDVGDYYCQQYYNWPPFTFGQGTKLEIKR", "values": [
      {"measurement": "binding result", "setting": "[2]", "result": "binds"}
    ]},
    {"binder": "186-95 wild-type heavy chain with light chain W94Y variant (antibody, V domains shown, Canine IgGB/kappa; signal peptides left out; also called Wild-type / W94Y) VH: EVQLVESGGDLVKPGGSLRLSCVASGFTFSSYAMSWVRQAPGKGLQWVSAISGSGNSTYYADAVKGRFTISRDNAKNTLYLQMNSLRAEDTAVYYCATQVVYYFKMDVWGQGTLVTVSS VL: EIVMTQSPGSLAGSAGESVSINCKSSQSVSSNLAWYQQKPGERPKLLIYGASTRASGVPARFSSSGSGTDFTLTINNLQAEDVGDYYCQQYYNYPPFTFGQGTKLEIKR", "values": [
      {"measurement": "binding result", "setting": "[2]", "result": "binds"}
    ]},
    {"binder": "186-95 wild-type heavy chain with light chain W94F variant (antibody, V domains shown, Canine IgGB/kappa; signal peptides left out; also called Wild-type / W94F) VH: EVQLVESGGDLVKPGGSLRLSCVASGFTFSSYAMSWVRQAPGKGLQWVSAISGSGNSTYYADAVKGRFTISRDNAKNTLYLQMNSLRAEDTAVYYCATQVVYYFKMDVWGQGTLVTVSS VL: EIVMTQSPGSLAGSAGESVSINCKSSQSVSSNLAWYQQKPGERPKLLIYGASTRASGVPARFSSSGSGTDFTLTINNLQAEDVGDYYCQQYYNFPPFTFGQGTKLEIKR", "values": [
      {"measurement": "binding result", "setting": "[2]", "result": "binds"}
    ]},
    {"binder": "186-95 heavy chain S57A variant with wild-type light chain (antibody, V domains shown, Canine IgGB/kappa; signal peptides left out; also called S57A / Wild-type) VH: EVQLVESGGDLVKPGGSLRLSCVASGFTFSSYAMSWVRQAPGKGLQWVSAISGSGNATYYADAVKGRFTISRDNAKNTLYLQMNSLRAEDTAVYYCATQVVYYFKMDVWGQGTLVTVSS VL: EIVMTQSPGSLAGSAGESVSINCKSSQSVSSNLAWYQQKPGERPKLLIYGASTRASGVPARFSSSGSGTDFTLTINNLQAEDVGDYYCQQYYNWPPFTFGQGTKLEIKR", "values": [
      {"measurement": "binding result", "setting": "[2]", "result": "binds"}
    ]},
    {"binder": "caninized antibody clone 186-95 (antibody, V domains shown, Canine IgGB and canine kappa constant domains) VH: EVQLVESGGDLVKPGGSLRLSCVASGFTFSSYAMSWVRQAPGKGLQWVSAISGSGNSTYYADAVKGRFTISRDNAKNTLYLQMNSLRAEDTAVYYCATQVVYYFKMDVWGQGTLVTVSS VL: EIVMTQSPGSLAGSAGESVSINCKSSQSVSSNLAWYQQKPGERPKLLIYGASTRASGVPARFSSSGSGTDFTLTINNLQAEDVGDYYCQQYYNWPPFTFGQGTKLEIKR", "values": [
      {"measurement": "binding result", "setting": "[2]", "result": "binds"}
    ]},
    {"binder": "186-95 heavy chain N56Q variant with wild-type light chain (antibody, V domains shown, Canine IgGB/kappa; signal peptides left out; also called N56Q / Wild-type) VH: EVQLVESGGDLVKPGGSLRLSCVASGFTFSSYAMSWVRQAPGKGLQWVSAISGSGQSTYYADAVKGRFTISRDNAKNTLYLQMNSLRAEDTAVYYCATQVVYYFKMDVWGQGTLVTVSS VL: EIVMTQSPGSLAGSAGESVSINCKSSQSVSSNLAWYQQKPGERPKLLIYGASTRASGVPARFSSSGSGTDFTLTINNLQAEDVGDYYCQQYYNWPPFTFGQGTKLEIKR", "values": [
      {"measurement": "binding result", "setting": "[2]", "result": "binds"}
    ]}
  ]
}
